Source: patent US20140045930A1 (published 2014)

Biological target: E. coli ribosomal protein L16 (endogenous) (E. coli, UniProt A7ZSK2 1-136)
Assay: co-immunoprecipitation with anti-GFP (GFP-nanotrap), SDS-PAGE, identification by LC-MS/MS

B1: GFP-YcfD (N-terminally GFP-tagged YcfD) (other)
chain: MEYQLTLNWPDFLERHWQKRPVVLKRGFNNFIDPISPDELAGLAMESEVDSRLVSHQDGKWQVSHGPFESYDHLGETNWSLLVQAVNHWHEPTAALMRPFRELPDWRIDDLMISFSVPGGGVGPHLDQYDVFIIQGTGRRRWRVGEKLQMKQHCPHPDLLQVDPFEAIIDEELEPGDILYIPPGFPHEGYALENAMNYSVGFRAPNTRELISGFADYVLQRELGGNYYSDPDVPPRAHPADVLPQEMDKLREMMLELINQPEHFKQWFGEFISQSRHELDIAPPEPPYQPDEIYDALKQGEVLVRLGGLRVLRIGDDVYANGEKIDSPHRPALDALASNIALTAENFGDALEDPSFLAMLAALVNSGYWFFEG
notes: also called green fluorescent protein (GFP)-tagged YcfD
binding result: binds
